According to the RNAGym collection of RNA variant scans (doi:10.1093/molbev/msab373):

B1: Azoarcus group I ribozyme (parent)
chain: GUGCCUUGCGCCGGGAAACCACGCAAGGGAUGGUGUCAAAUUCGGCGAAACCUAAGCGCCCGCCCGGGCGUAUGGCAACGCCGAGCCAAGCUUCGGCGCCUGCGCCGAUGAAGGUGUAGAGACUAGACGGCACCCACCUAAGGCAAACGCUAUGGUGAAGGCAUAGUCCAGGGAGUGGCGAAAGUCACACAAACCGG

Variants of: B1
Assay: reverse-splicing fitness (ratio to wild type); higher = more active; in vitro selection; Mg2+ level not given
Procedure, shortened: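 An in vitro group I ribozyme library with randomized positions was T7-transcribed and gel-purified. In triplicate, 10 pmol RNA in EPPS pH 7.5 was reacted with 50 pmoles of a 30-nt RNA substrate for 1 h at 37 °C across several added MgCl2 levels (1–48 mM), then stopped with EDTA. Products were reverse transcribed from a substrate-complementary primer, PCR-amplified and sequenced (HiSeq 4000). Fitness is a variant's read proportion after selection over that before, normalised to wild type.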

Q: With GUGCCUUGCGCCGGGAAACCACGCAAGGGAUGGUGUCAAAUUCGGCGAAACCUAAGCGCCCGCCCGGGCGUAUGGCAACGCUGAGCCAAGCUUCGGCGCCUGCGCCGAUGUAGGUGUAGAGACUAGACGGCACCCACCUAAGGCCAACGGUAUGGUGAAGGCAUAGUCGAGGGAGUGGCGAAAGUCACACAAACCGG as the variant, how does the reverse-splicing fitness read?
A: The reverse-splicing fitness was 0.0072.

Q: For GUGCCUUGCGCCGGGAAACCACGCAAGGGAUGGUGUCAAAUUCGGCGAAACCUAAGCGCCCGCCCGGGCGUAUGGCAACGCUGAGCCAAGCUUCGGCGCCUGCGCCGAUGUAGGUGUAGAGACUAGACGGCACCCACCUAAGGCCAACGGUAUGGUGAAGGCAUAGUCUAGGGAGUGGCGAAAGUCACACAAACCGG, which reverse-splicing fitness is on record?
A: The reverse-splicing fitness was 0.00864.

Q: For GUGCCUUGCGCCGGGAAACCACGCAAGGGAUGGUGUCAAAUUCGGCGAAACCUAAGCGCCCGCCCGGGCGUAUGGCAACGCUGAGCCAAGCUUCGGCGCCUGCGCCGAUGUAGGUGUAGAGACUAGACGGCACCCACCUAAGGCCAACGUUAUGGUGAAGGCAUAGUCCAGGGAGUGGCGAAAGUCACACAAACCGG, which reverse-splicing fitness is on record?
A: The reverse-splicing fitness was 0.0602.

Q: With GUGCCUUGCGCCGGGAAACCACGCAAGGGAUGGUGUCAAAUUCGGCGAAACCUAAGCGCCCGCCCGGGCGUAUGGCAACGCUGAGCCAAGCUUCGGCGCCUGCGCCGAUGUAGGUGUAGAGACUAGACGGCACCCACCUAAGGCCAACGGUAUGGUGAAGGCAUAGUCUAGGGAGAGGCGAAAGUCACACAAACCGG as the variant, how does the reverse-splicing fitness read?
A: The reverse-splicing fitness was 0.00804.

Q: Which reverse-splicing fitness does the source give for GUGCCUUGCGCCGGGAAACCACGCAAGGGAUGGUGUCAAAUUCGGCGAAACCUAAGCGCCCGCCCGGGCGUAUGGCAACGCUGAGCCAAGCUUCGGCGCCUGCGCCGAUGUAGGUGUAGAGACUAGACGGCACCCACCUAAGGCCAACGGUAUGGUGAAGGCAUAGUCUAGGGAGCGGCGAAAGUCACACAAACCGG here?
A: The reverse-splicing fitness was 0.00969.

Q: Which reverse-splicing fitness does the source give for GUGCCUUGCGCCGGGAAACCACGCAAGGGAUGGUGUCAAAUUCGGCGAAACCUAAGCGCCCGCCCGGGCGUAUGGCAACGCUGAGCCAAGCUUCGGCGCCUGCGCCGAUGUAGGUGUAGAGACUAGACGGCACCCACCUAAGGCCAACGGUAUGGUGAAGGCAUAGUCUAGGGAGGGGCGAAAGUCACACAAACCGG here?
A: Its reverse-splicing fitness is 0.00515.

Q: With GUGCCUUGCGCCGGGAAACCACGCAAGGGAUGGUGUCAAAUUCGGCGAAACCUAAGCGCCCGCCCGGGCGUAUGGCAACGCUGAGCCAAGCUUCGGCGCCUGCGCCGAUGUAGGUGUAGAGACUAGACGGCACCCACCUAAGGCCAACGGUAUGGUGAAGGCAUAGUCAAGGGAGAGGCGAAAGUCACACAAACCGG as the variant, how does the reverse-splicing fitness read?
A: The reverse-splicing fitness was 0.00853.

Q: For GUGCCUUGCGCCGGGAAACCACGCAAGGGAUGGUGUCAAAUUCGGCGAAACCUAAGCGCCCGCCCGGGCGUAUGGCAACGCUGAGCCAAGCUUCGGCGCCUGCGCCGAUGUAGGUGUAGAGACUAGACGGCACCCACCUAAGGCCAACGGUAUGGUGAAGGCAUAGUCAAGGGAGCGGCGAAAGUCACACAAACCGG, which reverse-splicing fitness is on record?
A: The reverse-splicing fitness was 0.0066.

Q: For GUGCCUUGCGCCGGGAAACCACGCAAGGGAUGGUGUCAAAUUCGGCGAAACCUAAGCGCCCGCCCGGGCGUAUGGCAACGCUGAGCCAAGCUUCGGCGCCUGCGCCGAUGUAGGUGUAGAGACUAGACGGCACCCACCUAAGGCCAACGGUAUGGUGAAGGCAUAGUCAAGGGAGGGGCGAAAGUCACACAAACCGG, which reverse-splicing fitness is on record?
A: Its reverse-splicing fitness is 0.006.

Q: With GUGCCUUGCGCCGGGAAACCACGCAAGGGAUGGUGUCAAAUUCGGCGAAACCUAAGCGCCCGCCCGGGCGUAUGGCAACGCUGAGCCAAGCUUCGGCGCCUGCGCCGAUGUAGGUGUAGAGACUAGACGGCACCCACCUAAGGCCAACGGUAUGGUGAAGGCAUAGUCGAGGGAGAGGCGAAAGUCACACAAACCGG as the variant, how does the reverse-splicing fitness read?
A: The reverse-splicing fitness was 0.00901.

Q: Which reverse-splicing fitness does the source give for GUGCCUUGCGCCGGGAAACCACGCAAGGGAUGGUGUCAAAUUCGGCGAAACCUAAGCGCCCGCCCGGGCGUAUGGCAACGCUGAGCCAAGCUUCGGCGCCUGCGCCGAUGUAGGUGUAGAGACUAGACGGCACCCACCUAAGGCCAACGGUAUGGUGAAGGCAUAGUCGAGGGAGGGGCGAAAGUCACACAAACCGG here?
A: The reverse-splicing fitness was 0.00581.

Q: With GUGCCUUGCGCCGGGAAACCACGCAAGGGAUGGUGUCAAAUUCGGCGAAACCUAAGCGCCCGCCCGGGCGUAUGGCAACGCUGAGCCAAGCUUCGGCGCCUGCGCCGAUGUAGGUGUAGAGACUAGACGGCACCCACCUAAGGCCAACGGUAUGGUGAAGGCAUAGUCGAGGGAGCGGCGAAAGUCACACAAACCGG as the variant, how does the reverse-splicing fitness read?
A: Its reverse-splicing fitness is 0.00693.

Q: Which reverse-splicing fitness does the source give for GUGCCUUGCGCCGGGAAACCACGCAAGGGAUGGUGUCAAAUUCGGCGAAACCUAAGCGCCCGCCCGGGCGUAUGGCAACGCUGAGCCAAGCUUCGGCGCCUGCGCCGAUGUAGGUGUAGAGACUAGACGGCACCCACCUAAGGCCAACGGUAUGGUGAAGGCAUAGUCCAGGGAGGGGCGAAAGUCACACAAACCGG here?
A: The reverse-splicing fitness was 0.00423.

Q: Which reverse-splicing fitness does the source give for GUGCCUUGCGCCGGGAAACCACGCAAGGGAUGGUGUCAAAUUCGGCGAAACCUAAGCGCCCGCCCGGGCGUAUGGCAACGCUGAGCCAAGCUUCGGCGCCUGCGCCGAUGUAGGUGUAGAGACUAGACGGCACCCACCUAAGGCCAACGGUAUGGUGAAGGCAUAGUCCAGGGAGCGGCGAAAGUCACACAAACCGG here?
A: Its reverse-splicing fitness is 0.0175.

Q: With GUGCCUUGCGCCGGGAAACCACGCAAGGGAUGGUGUCAAAUUCGGCGAAACCUAAGCGCCCGCCCGGGCGUAUGGCAACGCUGAGCCAAGCUUCGGCGCCUGCGCCGAUGUAGGUGUAGAGACUAGACGGCACCCACCUAAGGCCAACGGUAUGGUGAAGGCAUAGUCCAGGGAGAGGCGAAAGUCACACAAACCGG as the variant, how does the reverse-splicing fitness read?
A: The reverse-splicing fitness was 0.00994.
